Assay results taken from patent publication US20120237978A1.

Target: β2AR part of the β2AR-Gs peptide fusion construct (receptor truncated at position 365) (human) (UniProt P07550)
Test: cell-based or functional assay

agonist affinity ([3H]-DHA competition binding with isoproterenol, Sf9 membranes): 27 fold
effect on agonist binding affinity compared with the β2AR-Gs complex: 3.5 fold
fraction of β2AR in the Ki high state ([3H]-DHA / isoproterenol competition, Sf9 membranes): 0.68
Substance: last 21 amino acids of the Gαs subunit (amino acids 374-394, except for C379A), as fused in the β2AR-Gs peptide fusion construct
